Our source for the stoichiometry N values is paper PMC6563307.

In experiment [1] the target is Vip3Ab1-740 (full length, not digested) (Bacillus thuringiensis). Description: SEC; analytical size exclusion chromatography of the full-length protein incubated overnight without midgut fluid, pH 10.0; 6 µL injected at 150 µg/mL; size estimated from molecular weight standards.
For experiment [2], the target named is Vip3Ab1 processed by midgut fluid (~65 kDa and ~20 kDa products that remain associated) (Bacillus thuringiensis). Description: SEC; analytical size exclusion chromatography after overnight digestion at pH 10.0, 30 °C, with S. frugiperda or S. eridania midgut fluid; 6 µL injected at 150 µg/mL; size estimated from molecular weight standards.
The target of experiment [3] is Vip3Ab1-740 processed by midgut fluid (~65 kDa and ~20 kDa products that remain associated) (Bacillus thuringiensis). The experiment is described as above.
Experiment [4] concerns the target Vip3Ab1 (full length, not digested) (Bacillus thuringiensis). Put plainly: SEC; analytical size exclusion chromatography of the full-length protein incubated overnight without midgut fluid, pH 10.0; 6 µL injected at 150 µg/mL; size estimated from molecular weight standards.

In the case of Vip3Ab1-740 (full length, not digested), in experiment [1], the stoichiometry N is 4.

For the substance “Vip3Ab1 processed by midgut fluid (~65 kDa and ~20 kDa products that remain associated) (complex)”, in experiment [2], the stoichiometry N is 4.

As for “Vip3Ab1-740 processed by midgut fluid (~65 kDa and ~20 kDa products that remain associated) (complex)”, the stoichiometry N in experiment [3] is 4.

As for “Vip3Ab1 (full length, not digested) (natural protein)”, the stoichiometry N in experiment [4] was 4.

In general, stoichiometry N refers to a count of units in the complex or per binding partner.
